Test results as given in article PMC9135769, “A topological refactoring design strategy yields highly stable granulopoietic proteins” (Nature Communications, 2022).

T1: G-CSF Receptor (G-CSFR) (human, UniProt Q99062 25-333)
T1 construct: G-CSF receptor (G-CSFR), human, bought recombinant protein; In the functional rows the receptor is the one on the cells of the test (murine NFS-60 or human CD34+ HSPCs); also called human G-CSFR; human G-CSF receptor; source: bought: R&D systems 381-GR-050/CF
T1 sequence: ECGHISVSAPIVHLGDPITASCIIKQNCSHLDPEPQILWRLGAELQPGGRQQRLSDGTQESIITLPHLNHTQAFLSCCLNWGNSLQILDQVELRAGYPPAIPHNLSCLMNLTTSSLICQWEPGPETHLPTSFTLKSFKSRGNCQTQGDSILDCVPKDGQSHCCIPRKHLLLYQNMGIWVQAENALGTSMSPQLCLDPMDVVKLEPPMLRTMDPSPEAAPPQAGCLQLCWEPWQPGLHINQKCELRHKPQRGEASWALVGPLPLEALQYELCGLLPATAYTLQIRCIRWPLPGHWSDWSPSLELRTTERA


Experiments:
G-CSFR (Homo sapiens) [1] = molecular target: G-CSFR (Homo sapiens) (UniProt Q99062); assay: SPR; conditions: cited from earlier work
G-CSFR (Homo sapiens) [2] = molecular target: G-CSFR (Homo sapiens) (UniProt Q99062); assay: ITC; conditions: cited from earlier work
G-CSF Receptor (G-CSFR) = molecular target: T1, G-CSF Receptor (G-CSFR); assay: SPR; G-CSFR amine-coupled on a CM5 chip (Biacore X100), analytes flowed over, multi-cycle kinetics, 25 °C, 10 mM HEPES pH 7.4, 150 mM NaCl, 3.4 mM EDTA, 0.005% Tween-20; 1:1 model, linear fit of kobs against concentration; legend speaks of apparent affinity for the bivalent ligands; conditions: both partners purified

G-CSF, sequence (P09919 31-207): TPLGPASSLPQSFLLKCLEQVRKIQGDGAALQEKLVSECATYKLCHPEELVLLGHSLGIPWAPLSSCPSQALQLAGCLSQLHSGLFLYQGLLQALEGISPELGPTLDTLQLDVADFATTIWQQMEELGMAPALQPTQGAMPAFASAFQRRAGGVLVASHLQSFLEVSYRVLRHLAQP

| Kd (G-CSF Receptor (G-CSFR)) | koff (G-CSF Receptor (G-CSFR)) | kon (G-CSF Receptor (G-CSFR)) | Molecule | Kd (G-CSFR (Homo sapiens) [1]) | Kd (G-CSFR (Homo sapiens) [2]) |
| --- | --- | --- | --- | --- | --- |
| – | – | – | G-CSF (from UniProt P09919) | 0.2 nM | 1.4 nM |
| 1.1 nM | 0.00049 s⁻¹ | 300000 M⁻¹ s⁻¹ | Recombinant human G-CSF (rhG-CSF), USP RS Filgrastim (ligand, UniProt P09919-2 31-204, looked up, granulocyte-colony stimulating factor (G-CSF), human, recombinant; printed length 174 amino acids; also called granulocyte-colony stimulating factor; wild-type G-CSF; source: bought: USP RS Filgrastim, Sigma-Aldrich 1270435) TPLGPASSLPQSFLLKCLEQVRKIQGDGAALQEKLCATYKLCHPEELVLLGHSLGIPWAPLSSCPSQALQLAGCLSQLHSGLFLYQGLLQALEGISPELGPTLDTLQLDVADFATTIWQQMEELGMAPALQPTQGAMPAFASAFQRRAGGVLVASHLQSFLEVSYRVLRHLAQP | – | – |
